Test results as given in IntAct's records for PubMed 20924357.

Assays:
bglg_ecoli bglG [1] = target: bglg_ecoli bglG (UniProt P11989)
bglg_ecoli bglG [2] = target: bglg_ecoli bglG (UniProt P11989); remark: listed apart in the source
bglg_ecoli bglG [3] = target: bglg_ecoli bglG (UniProt P11989); remark: listed apart in the source

Chain of bglg_ecoli bglG (P11989 whole entry): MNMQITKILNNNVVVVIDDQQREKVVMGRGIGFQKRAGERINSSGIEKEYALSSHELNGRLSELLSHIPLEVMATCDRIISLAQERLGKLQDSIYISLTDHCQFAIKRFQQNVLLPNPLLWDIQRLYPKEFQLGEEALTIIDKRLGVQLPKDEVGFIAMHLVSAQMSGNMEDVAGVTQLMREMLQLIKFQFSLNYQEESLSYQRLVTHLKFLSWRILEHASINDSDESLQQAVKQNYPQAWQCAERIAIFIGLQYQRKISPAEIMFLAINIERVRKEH

| Substance | effect of a mutation on the interaction (bglg_ecoli bglG [1]) | effect of a mutation on the interaction (bglg_ecoli bglG [2]) | effect of a mutation on the interaction (bglg_ecoli bglG [3]) |
| --- | --- | --- | --- |
| Phosphocarrier protein HPr (Escherichia coli (strain K12)), P0AA04 H15A | increasing interaction | – | – |
| Phosphoenolpyruvate-protein phosphotransferase (Escherichia coli (strain K12)), P08839 H189A | – | disrupting interaction | decreasing interaction |
